# Data reported in patent US9434716B2, “Antigen binding proteins” (Glaxo Group Limited, priority 2011, dated 2016).
# “Also recorded” adds a separate entry of the source.
# T1: human CRP (Homo sapiens, UniProt P02741)
# T1 sequence (P02741 19-224): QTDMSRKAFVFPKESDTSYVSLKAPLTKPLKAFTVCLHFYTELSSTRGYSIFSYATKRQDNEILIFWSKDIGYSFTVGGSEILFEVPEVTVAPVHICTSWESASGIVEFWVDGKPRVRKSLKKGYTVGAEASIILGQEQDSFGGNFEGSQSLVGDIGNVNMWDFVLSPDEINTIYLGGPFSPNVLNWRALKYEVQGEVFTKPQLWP
# B1: SAP-E: mouse IgG2a monoclonal anti-human SAP antibody, VH SEQ ID NO:7, VL SEQ ID NO:9 (antibody, V domains shown)
# VH: QASLQQSGTELVRSGASVKMSCKASGFTFATYNMHWIKQTPGQGLEWIGYIYPGDGNANYNQQFKGKATLTADTSSNTAYMQISSLTSEDSAVYFCARGDFDYDGGYYFDSWGQGTTLTVSS
# VL: DIQMTQSPASLSASVGETVTITCRASENIYSYLAWYQQKQGRSPQLLVHNAKTLAEGVPSRVSGSGSGTHFSLKINGLQPEDFGNYYCQHHYGAPLTFGAGTKLELK
# Assays:
# [1] = molecular target: T2, human SAP (Homo sapiens, UniProt P02743); test: Competition ELISA with chimeric anti-SAP mAb; type: binding; conditions: human SAP coated at 1 μg/mL; purified murine mAb
# T2 construct: from tissue; host or cells: natural human SAP, purified
# Text: A constant concentration of chimeric anti-SAP mAb was mixed with serial diluted (1:1) amounts of mouse anti-SAP mAbs. Plates were washed and the amount of chimeric antibody bound to the immobilised human SAP was detected using goat anti-human Kappa Light chain peroxidase conjugate (Sigma, A7164). The ELISA was developed using O-phenylenediamine dihydrochloride (OPD) peroxidase substrate (Sigma, P9187).
# [2] = molecular target: T2, human SAP; test: Biacore kinetics, human SAP captured on immobilised O-phosphoethanolamine; type: binding; conditions: CM5 chip, calcium; bivalent analyte model; 25° C.; for comparison only, avidity effect
# Protocol: O-phosphoethanolamine was immobilised on a Biacore CM5 chip by primary amine coupling in accordance with the manufacturer's instructions. Human SAP was then captured on the surface in the presence of calcium chloride, in order to replicate in the Biacore system in vitro, the precise orientation of SAP molecules bound to amyloid fibrils in vivo. Anti SAP antibodies were then passed over this surface at 256, 64, 16, 4, 1 nM and a binding sensorgrams obtained. Analysis was carried out at 25° C. using 4% BSA, 10 mM Tris, 140 mM NaCl, 2 mM CaCl2, 0.05% surfactant P20, 0.02% Na N3, pH 8.0 as running buffer. […] Data generated were double referenced with a buffer injection over the human SAP surface and analyzed using the bivalent analyte model in the Biacore T100 evaluation software.
# [3] = molecular target: T2, human SAP; test: Biacore (BIAcoreX), human SAP covalently immobilised on the chip; type: binding; conditions: mean and SD of 3 replicate measurements
# [4] = molecular target: T2, human SAP; test: Immunoradiometric assay, human SAP captured by immobilised sheep polyclonal anti-human SAP antibody; type: binding; conditions: all levels of human SAP input; mean of 3 replicates
# Text: (§1) SAP-K was selected from among the 6 different, most avidly binding, mouse IgG2a monoclonals, derived by standard techniques from immunization with purified human SAP and a conventional fusion to produce hybridomas which were cloned by routine methods. […] This was the case regardless of whether the human SAP had been directly immobilised on plastic surfaces by non-specific adherence or by covalent attachment, or by the specific calcium dependent binding of SAP to immobilised ligands, whether amyloid fibrils or the small molecule ligand, phosphoethanolamine. SAP-K also bound well to directly immobilised SAP in the presence or absence of calcium, and if the SAP had previously been complexed with CPHPC and then covalently ‘fixed’ in the decameric SAP-CPHPC complex (Pepys, M. B. et al (2002) Targeted pharmacological depletion of serum amyloid P component for treatment of human amyloidosis. Nature, 417: 254-259; Kolstoe, S. E. et al (2009) Molecular dissection of Alzheimer's disease neuropathology by depletion of serum amyloid P component. Proc. Natl. Acad. Sci. USA, 106: 7619-7623). SAP-E also bound well to human SAP in all these different configurations.
# Each point is the mean of 3 replicates.
# [5] = molecular target: T2, human SAP; test: Binding of mouse monoclonals to immobilised human SAP in vitro
# Text: SAP-E and SAP-K are from two groups of anti-SAP monoclonals, each group having been tested separately for their binding to human SAP in vitro.
# as §1
# [6] = molecular target: T3, native human SAP (Homo sapiens, UniProt P02743); test: Double immunodiffusion in agarose gel; type: binding; conditions: isolated pure human SAP and whole human serum
# T3 construct: against both isolated pure human SAP and whole human serum; from tissue; host or cells: whole human serum, and isolated pure human SAP
# [7] = molecular target: T2, human SAP; test: Western blotting and fragment epitope mapping (CNBr, chymotrypsin); type: binding
# Text: This is consistent with the kinetic stability and resistance to denaturation of SAP (Manning, M. and Colón, W. (2004) Biochemistry, 43: 11248-11254).
# B, SDS-PAGE analysis of SAP cleaved with CNBr. […] These were precisely confirmed by mass spectrometry. […] C, SDS-PAGE analysis of SAP digested with chymotrypsin. Left panel: Coomassie blue stain; lane 1, untreated control SAP; lane 2, SAP after chymotrypsin digestion, showing the expected major fragments corresponding to residues 1-140 and 145-204. These were precisely confirmed by mass spectrometry. Right panel: Western blot with SAP-E showing intense staining of intact untreated SAP in lanes 1 (500 ng loaded) and 2 (100 ng), and also residual intact SAP in lanes 3 and 4 which contained the chymotrypsin digested SAP at different loadings. Very weak binding of SAP-E to the residue 1-140 fragment is seen only in lane 3 which was most heavily loaded. […] D, Sequence comparison between human SAP (h) and mouse SAP (m) for residues 136-147. Top panel, differences indicated above by residues shown in black in the murine sequence. Bottom panel, position of this extended loop with 140Y at its apex shown in white in the 3D subunit structure of human SAP. The different residues in the murine sequence are shown in black. The grey spheres represent the calcium atoms bound in the ligand binding pocket.
# [8] = molecular target: T1, human CRP; test: Western blotting against CRP; type: binding; conditions: western blot, 500 ng and 100 ng loaded
# [9] = test system: mice with systemic AA amyloidosis; test: SAP-E versus SAP-K in clearing systemic AA amyloid deposits (Example 16); type: in vivo, mouse; conditions: lower doses
# Protocol: AA amyloidosis was induced and confirmed in wild-type C57BL/6 mice as detailed in Example 10 above. After loading the amyloid deposits with human SAP also detailed in Example 10, groups of mice were treated with 3 mg and 1 mg per mouse of the two different antibodies. […] All mice were bled for assay of circulating anti-SAP antibody at days 1, 5 and 15 after dosing with antibody, and all were killed on day 21 for estimation of amyloid load by Congo red staining. All sera were assayed for anti-SAP activity using a robust immunoradiometric assay standardised with purified SAP-E and SAP-K respectively, spiked at known concentrations into normal mouse serum.
# Amyloid load was scored by four independent expert observers all blinded to the identity of each tissue examined. The scores of all observers were, as usual highly concordant and for statistical analysis, the total scores of all observers for both spleen and liver for each mouse were summed.
# [10] = test system: mice with systemic AA amyloidosis; test: Low dose SAP-E and SAP-K in clearing systemic AA amyloid deposits (Example 17); type: in vivo, mouse; conditions: low doses
# Protocol: AA amyloidosis was induced and confirmed in wild-type C57BL/6 mice as detailed in Example 10 above. After loading the amyloid deposits with human SAP as also detailed in Example 10, groups of mice (n=10 each) were treated with single doses of either 0.5 mg and 1 mg per mouse of the two different antibodies, or 6 repeated doses of 0.15 mg, given at 3 or 4 day intervals. […] All were killed on day 29 for estimation of amyloid load by Congo red staining.
# T2 sequence (P02743 20-223): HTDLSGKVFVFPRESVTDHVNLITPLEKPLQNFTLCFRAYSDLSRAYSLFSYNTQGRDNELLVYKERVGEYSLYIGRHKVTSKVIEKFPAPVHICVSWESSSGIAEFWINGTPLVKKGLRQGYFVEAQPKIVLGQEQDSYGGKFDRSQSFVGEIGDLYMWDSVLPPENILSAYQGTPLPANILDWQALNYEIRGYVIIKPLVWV
# T3 sequence (P02743 20-223): as above
molecule,measurement,setting,value
B1,competition with SAP-K chimera,[1],no competition
same,ka,[2],31500 M⁻¹ s⁻¹
same,kd,[2],1.51e-08 s⁻¹
same,kd,[3],6 ± 4 × 10^−5 sec^−1
same,binding to human SAP captured by sheep polyclonal anti-human SAP,[4],SAP-E bound better than SAP-K at all levels of human SAP input; also recorded: Substantially more SAP-E than SAP-K bound at all concentrations of human SAP offered
same,binding to immobilised human SAP,"[5]; abundant immobilised SAP, coating solution 100 μg/ml",more binding of SAP-E than SAP-K
same,binding to human SAP in vitro,[5]; compared within the group of monoclonals,"strongest binding to SAP, within their groups"
same,binding to native human SAP (immunoprecipitation),[6],bound apparently equally well to native human SAP
same,binding to native human SAP in western blotting,[7]; after agarose gel electrophoresis in physiological buffers,bound
same,binding to human SAP in western blotting from reduced SDS-PAGE,[7]; denatured human SAP,only SAP-E bound
same,epitope recognised,"[7]; residues of human SAP, CNBr and chymotrypsin fragments",region 140-158
same,reaction with isolated pure human CRP,[8],did not react at all
same,"potency in clearing amyloid, SAP-E compared with SAP-K",[9],apparently more potent than SAP-K at the lower doses
same,"potency in clearing amyloid, SAP-E compared with SAP-K",[10],again apparently more potent than SAP-K
